According to EP2468858B1:

Target: FGF-21 receptor on differentiated 3T3-L1 fat cells (mouse)
Assay: cell-based or functional assay

Work on “recombinant human FGF-21 (from Chongqing Fagen Biomedical Inc.) (from UniProt Q9NSA1 29-209) (ligand)” yielded a Glucose uptake CPM of 3T3-L1 fat cells at 0 nM protein (baseline) of 1880 CPM, a Glucose uptake CPM of 3T3-L1 fat cells at 0.03 nM protein of 1800 CPM and a Glucose uptake CPM of 3T3-L1 fat cells at 0.15 nM protein of 2110 CPM. The Glucose uptake CPM of 3T3-L1 fat cells at 0.8 nM protein was 2200 CPM, the Glucose uptake CPM of 3T3-L1 fat cells at 4 nM protein was 3300 CPM and the Glucose uptake CPM of 3T3-L1 fat cells at 20 nM protein was 5130 CPM. The Glucose uptake CPM of 3T3-L1 fat cells at 100 nM protein was 5320 CPM.
